For one substance, Kd and dH results are on record in publication PMC11452297.

The assay addresses C-terminal domain of FusB (residues 224-324) (Pectobacterium carotovorum). The experiment in a line: ITC; 480 uM PM1 in the syringe titrated into 20 uM FusB in the cell; VP-ITC, 25 °C, 20 mM sodium phosphate pH 7.5, 150 mM NaCl. For orientation: ITC needs no label: the signal is the heat of the interaction.

On to Pectocin M1 (natural protein), for which the Kd (commonly a measure of binding affinity in units of concentration) was found to be 8.1 µM and the dH was -6 kcal/mol.
